How the values were obtained:
[1] = target: T1, soluble extracellular domain of human IL-5 receptor alpha subunit (sIL-5Rα) (human, UniProt Q01344 21-333); assay: ELISA; competition with plate-immobilized IL-5-mFc
T1 chain: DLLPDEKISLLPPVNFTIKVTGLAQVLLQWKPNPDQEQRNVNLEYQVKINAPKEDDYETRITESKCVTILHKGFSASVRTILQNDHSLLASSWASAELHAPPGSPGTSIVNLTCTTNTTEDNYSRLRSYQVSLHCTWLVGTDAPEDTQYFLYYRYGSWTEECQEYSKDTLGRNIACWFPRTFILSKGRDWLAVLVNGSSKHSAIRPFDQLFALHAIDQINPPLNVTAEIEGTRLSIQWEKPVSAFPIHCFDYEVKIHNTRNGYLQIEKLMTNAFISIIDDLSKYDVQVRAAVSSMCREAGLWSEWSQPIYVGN

[2] = target: T2, soluble extracellular domain of human IL-5 receptor alpha subunit (sIL-5Rα) (human, UniProt Q01344); assay: BLI; Octet QKe, 30°C, 1× kinetics buffer in PBS pH 7.4; Ab immobilised on anti-human IgG Fc capture (AHC) biosensors, sIL-5Rα as analyte; association 300 s, dissociation 600 s; 1:1 binding model; details: both partners purified
T2 construct: human IL-5 receptor alpha subunit (IL-5Rα, CD125), extracellular domain, residues 21–333; subcloned from a cDNA of residues 1–420; Expressed from the pSecTag2A vector; migrates at ~50 kDa (glycosylated); A biotinylated form (BirA) was used only for library screening; also called sIL-5α; CD125; source: HEK293F, transiently transfected, purified (Ni-NTA); not shown: Avi, C-terminal, kept; His6, …

insulin = target: T3, insulin (Homo sapiens (assumed), UniProt P01308); assay: ELISA; plates coated at 25°C for 1 h with sIL-5Rα (50 ng/well) or off-target antigens (insulin 125 ng/well, hemocyanin 125 ng/well); Abs 8–200 nM in PBST pH 7.4 with 2% skim milk, 25°C, 1 h; detected with HRP anti-human Fc or anti-mouse Fc; details: both partners purified
T3 construct: insulin B chain; insulin A chain; Off-target antigen of the nonspecificity ELISA (125 ng/well)
T3 sequence (P01308 whole entry, looked up): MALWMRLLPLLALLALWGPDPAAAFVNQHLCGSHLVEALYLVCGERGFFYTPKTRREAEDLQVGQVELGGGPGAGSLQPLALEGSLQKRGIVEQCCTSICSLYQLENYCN

[3] = target: T2, soluble extracellular domain of human …; assay: cell-based or functional assay
[4] = target: T2, soluble extracellular domain of human …; assay: ELISA; competitive: plates coated with IL-5-mFc (100 ng/well); sIL-5Rα (50 nM) added with anti–IL-5Rα Abs (0–1 µM), 25°C, 1 h; bound sIL-5Rα detected with HRP anti-His; details: both partners purified

Row | Binder | IC50 [1] | Kd [2] | koff [2] | kon [2] | binding result (insulin) | IC50 of inhibition of rhIL-5 (80 pM)-stimulated proliferation of TF-1/IL-5Rα cells, Abs 0 to 32 nM, 40 h (blocks IL-5 with IL-5Rα) [3] | NK cell–mediated ADCC against peripheral eosinophils from healthy controls (autologous NK cells 1:5, Ab 1 μM, rhIL-5 100 pM, 20 h), fold against the benralizumab analogue [3] | IC50 [4]
1 | 5R68 (antibody, V domains shown, Human IgG1, kappa; selected as scFab by yeast display from the hu2B7 VH-CDR2 library; source: HEK293F, purified (Protein A)) VH: QVQLVQSGAEVKKPGSSVKVSCKASGYTFTSYWINWVRQAPGQGLEWIGHIYPTATIAVYNDKFKDKATLTVDKSTNTAYMELSSLRSEDTAVYYCTRDYYGRSYYYAMDYWGQGTTLTVSS VL: DIQMTQSPSTLSASVGDRVTITCKASQNVGTAVAWYQQKPGKAPKLLIYWASTRHTGVPDRFSGSGSGTDFTLTISSLQPDDFATYYCQQFGRYPYTFGSGTKVEVK | 28.8 nM | 24.1 ± 0.47 nM | 0.000566 s⁻¹ | 23500 M⁻¹ s⁻¹ | no binding (tested: 100 nM) |  |  | 
2 | 5R80 (antibody, V domains shown, Human IgG1, kappa; selected as scFab by yeast display from the hu2B7 VH-CDR2 library; source: HEK293F, purified (Protein A)) VH: QVQLVQSGAEVKKPGSSVKVSCKASGYTFTSYWINWVRQAPGQGLEWIGHIYPQKTLTIYNHKFKDKATLTVDKSTNTAYMELSSLRSEDTAVYYCTRDYYGRSYYYAMDYWGQGTTLTVSS VL: DIQMTQSPSTLSASVGDRVTITCKASQNVGTAVAWYQQKPGKAPKLLIYWASTRHTGVPDRFSGSGSGTDFTLTISSLQPDDFATYYCQQFGRYPYTFGSGTKVEVK | 24.2 nM | 16.2 ± 0.59 nM | 0.000365 s⁻¹ | 22500 M⁻¹ s⁻¹ | no binding (tested: 100 nM) |  |  | 
3 | hu2B7 humanized anti–IL-5Rα antibody (antibody, V domains shown, VH of hu2B7: CDRs of m2B7 grafted on the FRs of daclizumab, mouse ThrH93 (Kabat) kept; VL of hu2B7: CDRs of m2B7 grafted on the FRs of daclizumab, mouse AspL60 and AspL70 kept; Full-length human IgG1, kappa; source: HEK293F, transiently cotransfected, purified (Protein A)) VH: QVQLVQSGAEVKKPGSSVKVSCKASGYTFTSYWINWVRQAPGQGLEWIGHIYPSESYTNYNQKFKDKATLTVDKSTNTAYMELSSLRSEDTAVYYCTRDYYGRSYYYAMDYWGQGTTLTVSS VL: DIQMTQSPSTLSASVGDRVTITCKASQNVGTAVAWYQQKPGKAPKLLIYWASTRHTGVPDRFSGSGSGTDFTLTISSLQPDDFATYYCQQFGRYPYTFGSGTKVEVK | 57.4 nM | 47.8 ± 1.06 nM | 0.00106 s⁻¹ | 22200 M⁻¹ s⁻¹ |  |  |  | 
4 | 5R86 (antibody, V domains shown, Human IgG1, kappa; selected as scFab by yeast display from the hu2B7 VH-CDR2 library; source: HEK293F, purified (Protein A)) VH: QVQLVQSGAEVKKPGSSVKVSCKASGYTFTSYWINWVRQAPGQGLEWIGHIYPTSSVKFYNNKFKDKATLTVDKSTNTAYMELSSLRSEDTAVYYCTRDYYGRSYYYAMDYWGQGTTLTVSS VL: DIQMTQSPSTLSASVGDRVTITCKASQNVGTAVAWYQQKPGKAPKLLIYWASTRHTGVPDRFSGSGSGTDFTLTISSLQPDDFATYYCQQFGRYPYTFGSGTKVEVK | 14.1 nM | 11.8 ± 0.51 nM | 0.0003 s⁻¹ | 25400 M⁻¹ s⁻¹ | no binding (tested: 100 nM) |  |  | 
5 | 5R65.45 (antibody, V domains shown, as the VH of m6 (5R65) with mutations in VH-CDR3 (Kabat residues 95–100d were randomised); no mutations in VL-CDR3; Human IgG1, kappa; selected as scFab by yeast display from the 5R65 CDR3 library under kinetic screening; source: HEK293F, purified (Protein A)) VH: QVQLVQSGAEVKKPGSSVKVSCKASGYTFTSYWINWVRQAPGQGLEWIGHIYPNKNENYYNHKFKDKATLTVDKSTNTAYMELSSLRSEDTAVYYCTREYYGRSYYNAMDYWGQGTTLTVSS VL: DIQMTQSPSTLSASVGDRVTITCKASQNVGTAVAWYQQKPGKAPKLLIYWASTRHTGVPDRFSGSGSGTDFTLTISSLQPDDFATYYCQQFGRYPYTFGSGTKVEVK |  | 7.26 ± 0.36 nM | 0.000181 s⁻¹ | 24900 M⁻¹ s⁻¹ |  |  |  | 
6 | 5R65.10 (antibody, V domains shown, as the VH of m6 (5R65) with mutations in VH-CDR3 (Kabat residues 95–100d were randomised); no mutations in VL-CDR3; Human IgG1, kappa; selected as scFab by yeast display from the 5R65 CDR3 library under kinetic screening; source: HEK293F, purified (Protein A)) VH: QVQLVQSGAEVKKPGSSVKVSCKASGYTFTSYWINWVRQAPGQGLEWIGHIYPNKNENYYNHKFKDKATLTVDKSTNTAYMELSSLRSEDTAVYYCTREYYGRSYYAAMDYWGQGTTLTVSS VL: DIQMTQSPSTLSASVGDRVTITCKASQNVGTAVAWYQQKPGKAPKLLIYWASTRHTGVPDRFSGSGSGTDFTLTISSLQPDDFATYYCQQFGRYPYTFGSGTKVEVK |  | 8.25 ± 0.4 nM | 0.000201 s⁻¹ | 24400 M⁻¹ s⁻¹ |  |  |  | 
7 | 5R65.14 (antibody, V domains shown, as the VH of m6 (5R65) with mutations in VH-CDR3 (Kabat residues 95–100d were randomised); no mutations in VL-CDR3; Human IgG1, kappa; selected as scFab by yeast display from the 5R65 CDR3 library under kinetic screening; source: HEK293F, purified (Protein A)) VH: QVQLVQSGAEVKKPGSSVKVSCKASGYTFTSYWINWVRQAPGQGLEWIGHIYPNKNENYYNHKFKDKATLTVDKSTNTAYMELSSLRSEDTAVYYCTREHYGRPYYNAMDYWGQGTTLTVSS VL: DIQMTQSPSTLSASVGDRVTITCKASQNVGTAVAWYQQKPGKAPKLLIYWASTRHTGVPDRFSGSGSGTDFTLTISSLQPDDFATYYCQQFGRYPYTFGSGTKVEVK |  | 8.64 ± 0.35 nM | 0.000199 s⁻¹ | 23000 M⁻¹ s⁻¹ |  |  |  | 
8 | 5R65.7 (antibody, V domains shown, as the VH of m6 (5R65) with mutations in VH-CDR3 (Kabat residues 95–100d were randomised); no mutations in VL-CDR3; Human IgG1, kappa; selected as scFab by yeast display from the 5R65 CDR3 library under kinetic screening; also called 5R65.7 Ab; source: HEK293F, purified (Protein A)) VH: QVQLVQSGAEVKKPGSSVKVSCKASGYTFTSYWINWVRQAPGQGLEWIGHIYPNKNENYYNHKFKDKATLTVDKSTNTAYMELSSLRSEDTAVYYCTREFYGRQYYQAMDYWGQGTTLTVSS VL: DIQMTQSPSTLSASVGDRVTITCKASQNVGTAVAWYQQKPGKAPKLLIYWASTRHTGVPDRFSGSGSGTDFTLTISSLQPDDFATYYCQQFGRYPYTFGSGTKVEVK |  | 4.64 ± 0.23 nM | 0.000147 s⁻¹ | 31700 M⁻¹ s⁻¹ |  | ~0.57 nM | ~3 fold | 
9 | 5R65.18 (antibody, V domains shown, as the VH of m6 (5R65) with mutations in VH-CDR3 (Kabat residues 95–100d were randomised); no mutations in VL-CDR3; Human IgG1, kappa; selected as scFab by yeast display from the 5R65 CDR3 library under kinetic screening; source: HEK293F, purified (Protein A)) VH: QVQLVQSGAEVKKPGSSVKVSCKASGYTFTSYWINWVRQAPGQGLEWIGHIYPNKNENYYNHKFKDKATLTVDKSTNTAYMELSSLRSEDTAVYYCTREYYGRTYYSAMDYWGQGTTLTVSS VL: DIQMTQSPSTLSASVGDRVTITCKASQNVGTAVAWYQQKPGKAPKLLIYWASTRHTGVPDRFSGSGSGTDFTLTISSLQPDDFATYYCQQFGRYPYTFGSGTKVEVK |  | 5.95 ± 0.27 nM | 0.000133 s⁻¹ | 22400 M⁻¹ s⁻¹ |  |  |  | 
10 | 5R65.39 (antibody, V domains shown, as the VH of m6 (5R65) with mutations in VH-CDR3 (Kabat residues 95–100d were randomised); no mutations in VL-CDR3; Human IgG1, kappa; selected as scFab by yeast display from the 5R65 CDR3 library under kinetic screening; source: HEK293F, purified (Protein A)) VH: QVQLVQSGAEVKKPGSSVKVSCKASGYTFTSYWINWVRQAPGQGLEWIGHIYPNKNENYYNHKFKDKATLTVDKSTNTAYMELSSLRSEDTAVYYCTREFYGRSRYSAMDYWGQGTTLTVSS VL: DIQMTQSPSTLSASVGDRVTITCKASQNVGTAVAWYQQKPGKAPKLLIYWASTRHTGVPDRFSGSGSGTDFTLTISSLQPDDFATYYCQQFGRYPYTFGSGTKVEVK |  | 6.13 ± 0.32 nM | 0.000171 s⁻¹ | 28000 M⁻¹ s⁻¹ |  |  |  | 
11 | 5R65 (antibody, V domains shown, Human IgG1, kappa; selected as scFab by yeast display from the hu2B7 VH-CDR2 library; also called 5R65 Ab; source: HEK293F, purified (Protein A)) VH: QVQLVQSGAEVKKPGSSVKVSCKASGYTFTSYWINWVRQAPGQGLEWIGHIYPNKNENYYNHKFKDKATLTVDKSTNTAYMELSSLRSEDTAVYYCTRDYYGRSYYYAMDYWGQGTTLTVSS VL: DIQMTQSPSTLSASVGDRVTITCKASQNVGTAVAWYQQKPGKAPKLLIYWASTRHTGVPDRFSGSGSGTDFTLTISSLQPDDFATYYCQQFGRYPYTFGSGTKVEVK |  | 14.5 ± 0.29 nM | 0.000329 s⁻¹ | 22700 M⁻¹ s⁻¹ | no binding (tested: 100 nM) | ~11.8 nM | ~1.5 fold | ~9.5 nM
12 | m2B7 murine anti–IL-5Rα antibody (antibody, V domains shown, VH of murine m2B7; FRs of mouse germline IGHV1-61*01; VL of murine m2B7; FRs of mouse germline IGKV6-23*01; source: hybridoma supernatant, expanded and purified) VH: QVQLQQPGAELVRPGASVKLSCKASGYTFTSYWINWVKQRPGQGLEWIGHIYPSESYTNYNQKFKDKATLTVDKSSSTAYMQLSSPTSEDSAVYYCTRDYYGRSYYYAMDYWGQGTSVTVSS VL: DIVMTQSHKFMSTSVGDRVSITCKASQNVGTAVAWYQQKPGQSPKLLIYWASTRHTGVPDRFTGSGSGTDFTFTISNVQSEDLADYFCQQFGRYPYTFGGGTKLEIK |  | 40.2 ± 0.84 nM | 0.000834 s⁻¹ | 20700 M⁻¹ s⁻¹ |  |  |  | 
13 | benralizumab analogue (antibody, V domains shown, VH of benralizumab, made by DNA synthesis; VL of benralizumab, made by DNA synthesis; Human IgG1, kappa; VH and VL identical to commercial benralizumab but with core fucose on the Fc N-glycan; also called benralizumab analogue (fucosylated human IgG1); source: HEK293F, transiently transfected, purified (Protein A)) VH: EVQLVQSGAEVKKPGASVKVSCKASGYTFTSYVIHWVRQRPGQGLAWMGYINPYNDGTKYNERFKGKVTITSDRSTSTVYMELSSLRSEDTAVYLCGREGIRYYGLLGDYWGQGTLVTVSS VL: DIQMTQSPSSLSASVGDRVTITCGTSEDIINYLNWYQQKPGKAPKLLIYHTSRLQSGVPSRFSGSGSGTDFTLTISSLQPEDFATYYCQQGYTLPYTFGQGTKVEIK |  | 26.8 ± 0.52 nM | 0.0011 s⁻¹ | 41100 M⁻¹ s⁻¹ |  | ~1.99 nM |  | ~9.8 nM
